Experimental data taken from PMC6078178 (Nature, 2017).

Target: T1, Tfa1 (TFIIE subunit) (S. cerevisiae, UniProt P36100 1-482)
T1 sequence (looked up): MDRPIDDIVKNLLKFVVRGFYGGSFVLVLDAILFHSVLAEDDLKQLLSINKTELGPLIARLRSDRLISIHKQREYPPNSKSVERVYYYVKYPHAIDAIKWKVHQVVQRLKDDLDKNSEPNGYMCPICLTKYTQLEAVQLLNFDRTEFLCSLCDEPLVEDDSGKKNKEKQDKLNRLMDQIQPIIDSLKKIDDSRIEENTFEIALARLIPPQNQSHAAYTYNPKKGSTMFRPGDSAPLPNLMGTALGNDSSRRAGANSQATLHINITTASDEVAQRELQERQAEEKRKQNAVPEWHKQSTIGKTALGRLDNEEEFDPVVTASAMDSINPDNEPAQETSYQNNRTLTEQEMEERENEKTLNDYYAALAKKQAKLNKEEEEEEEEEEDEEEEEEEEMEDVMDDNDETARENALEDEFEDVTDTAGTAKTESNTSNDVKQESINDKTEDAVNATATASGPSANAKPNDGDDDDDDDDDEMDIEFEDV
Experiment: cross-linking

B1: Ssl1 (natural protein, S. cerevisiae, UniProt Q04673 1-461, looked up)
chain: MAPVVISESEEDEDRVAITRRTKRQVHFDGEGDDRVDQQQQQHSSSHRDRDKHVQRKKKKRLSNRNLQGSNGGYAWEDEIKRSWDLVKVDDEGDMASLVASIVEARKKRTAKKNITPYQRGIIRSLILTLDCSEAMLEKDLRPNRHAMIIQYAIDFVHEFFDQNPISQMGIIIMRNGLAQLVSQVSGNPQDHIDALKSIRKQEPKGNPSLQNALEMARGLLLPVPAHCTREVLIVFGSLSTTDPGDIHQTIDSLVSEKIRVKVLGLSAQVAICKELCKATNYGDESFYKILLDETHLKELFNEAVTPLPVNKINKGFTLVKMGFPTRIFEDTPTFCSCHSKLVYGGYFCPNCHSKVCSLPTVCPCCDLMLILSTHLARSYHHLMPLKTFAEVPTTEKFRSEDCFSCQSRFPILKNHKNGKLLTSSRYRCEDCKQEFCVDCDVFIHEILHNCPGCESKPVIT
binding result: binds
